{"source": "FireProtDB", "proteins": {"B1": {"name": "L-arabinose-binding periplasmic protein wild type, P02924 (protein)", "chain": "MHKFTKALAAIGLAAVMSQSAMAENLKLGFLVKQPEEPWFQTEWKFADKAGKDLGFEVIKIAVPDGEKTLNAIDSLAASGAKGFVICTPDPKLGSAIVAKARGYDMKVIAVDDQFVNAKGKPMDTVPLVMMAATKIGERQGQELYKEMQKRGWDVKESAVMAITANELDTARRRTTGSMDALKAAGFPEKQIYQVPTKSNDIPGAFDAANSMLVQHPEVKHWLIVGMNDSTVLGGVRATEGQGFKAADIIGIGINGVDAVSELSKAQATGFYGSLLPSPDVHGYKSSEMLYNWVAKDVEPPKFTEVTDVVLITRDNFKEELEKKGLGGK"}, "B2": {"name": "Tetracycline repressor protein class D wild type, P0ACT4 (protein)", "chain": "MARLNRESVIDAALELLNETGIDGLTTRKLAQKLGIEQPTLYWHVKNKRALLDALAVEILARHHDYSLPAAGESWQSFLRNNAMSFRRALLRYRDGAKVHLGTRPDEKQYDTVETQLRFMTENGFSLRDGLYAISAVSHFTLGAVLEQQEHTAALTDRPAAPDENLPPLLREALQIMDSDDGEQAFLHGLESLIRGFEVQLTALLQIVGGDKLIIPFC"}, "B3": {"name": "Met repressor wild type, P0A8U6 (protein)", "chain": "MAEWSGEYISPYAEHGKKSEQVKKITVSIPLKVLKILTDERTRRQVNNLRHATNSELLCEAFLHAFTGQPLPDDADLRKERSDEIPEAAKEIMREMGINPETWEY"}, "B4": {"name": "Regulatory protein cro wild type, P03040 (protein)", "chain": "MEQRITLKDYAMRFGQTKTAKDLGVYQSAINKAIHAGRKIFLTINADGSVYAEEVKPFPSNKKTTA"}, "B5": {"name": "Lectin wild type, P16404 (protein)", "chain": "MATYKLCSVLALSLTLFLLILNKVNSVETISFSFSEFEPGNDNLTLQGAALITQSGVLQLTKINQNGMPAWDSTGRTLYAKPVHIWDMTTGTVASFETRFSFSIEQPYTRPLPADGLVFFMGPTKSKPAQGYGYLGIFNNSKQDNSYQTLGVEFDTFSNPWDPPQVPHIGIDVNSIRSIKTQPFQLDNGQVANVVIKYDASSKILHAVLVYPSSGAIYTIAEIVDVKQVLPEWVDVGLSGATGAQRDAAETHDVYSWSFQASLPETNDAVIPTSNHNTFAI"}, "B6": {"name": "PTS system mannose-specific EIIAB component wild type, P69797 (protein)", "chain": "MTIAIVIGTHGWAAEQLLKTAEMLLGEQENVGWIDFVPGENAETLIEKYNAQLAKLDTTKGVLFLVDTWGGSPFNAASRIVVDKEHYEVIAGVNIPMLVETLMARDDDPSFDELVALAVETGREGVKALKAKPVEKAAPAPAAAAPKAAPTPAKPMGPNDYMVIGLARIDDRLIHGQVATRWTKETNVSRIIVVSDEVAADTVRKTLLTQVAPPGVTAHVVDVAKMIRVYNNPKYAGERVMLLFTNPTDVERLVEGGVKITSVNVGGMAFRQGKTQVNNAVSVDEKDIEAFKKLNARGIELEVRKVSTDPKLKMMDLISKIDK"}, "B7": {"name": "Peptidyl-prolyl cis-trans isomerase B wild type, P23869 (protein)", "chain": "MVTFHTNHGDIVIKTFDDKAPETVKNFLDYCREGFYNNTIFHRVINGFMIQGGGFEPGMKQKATKEPIKNEANNGLKNTRGTLAMARTQAPHSATAQFFINVVDNDFLNFSGESLQGWGYCVFAEVVDGMDVVDKIKGVATGRSGMHQDVPKEDVIIESVTVSE"}, "B8": {"name": "Ribonuclease HI wild type, P0A7Y4 (protein)", "chain": "MLKQVEIFTDGSCLGNPGPGGYGAILRYRGREKTFSAGYTRTTNNRMELMAAIVALEALKEHCEVILSTDSQYVRQGITQWIHNWKKRGWKTADKKPVKNVDLWQRLDAALGQHQIKWEWVKGHAGHPENERCDELARAAAMNPTLEDTGYQVEV"}, "B9": {"name": "Lactose operon repressor wild type, P03023 (protein)", "chain": "MKPVTLYDVAEYAGVSYQTVSRVVNQASHVSAKTREKVEAAMAELNYIPNRVAQQLAGKQSLLIGVATSSLALHAPSQIVAAIKSRADQLGASVVVSMVERSGVEACKAAVHNLLAQRVSGLIINYPLDDQDAIAVEAACTNVPALFLDVSDQTPINSIIFSHEDGTRLGVEHLVALGHQQIALLAGPLSSVSARLRLAGWHKYLTRNQIQPIAEREGDWSAMSGFQQTMQMLNEGIVPTAMLVANDQMALGAMRAITESGLRVGADISVVGYDDTEDSSCYIPPLTTIKQDFRLLGQTSVDRLLQLSQGQAVKGNQLLPVSLVKRKTTLAPNTQTASPRALADSLMQLARQVSRLESGQ"}}, "conditions": "whole UniProt chain shown", "key": {"[1]": {"conditions": "Escherichia coli (strain K12), pH 7.4, Thermal, DSC, phosphate 5 mM, reversible: yes"}, "[2]": {"conditions": "Escherichia coli (strain K12), pH 7, 25 °C, Thermal, DSC, Potassium phosphate 25 mM, KCl 100 mM, reversible: yes"}, "[3]": {"conditions": "Escherichia coli (strain K12), pH 7, Thermal, DSC, Potassium phosphate 25 mM, KCl 100 mM, reversible: yes"}, "[4]": {"conditions": "Erythrina corallodendron, pH 7.4, Thermal, DSC, Sodium phosphate 0.02 M, NaCl 0.15 M, reversible: yes"}, "[5]": {"conditions": "Escherichia coli (strain K12), pH 3, Thermal, CD, glycine-HCl 10 mM, NaCl 0.1 M, reversible: yes"}, "[6]": {"conditions": "Escherichia coli (strain K12), pH 3, Thermal, CD, glycine-HCl 10 mM, reversible: yes"}, "[7]": {"conditions": "Escherichia coli (strain K12), pH 5.5, Thermal, CD, Sodium acetate 5 mM, KCl 50 mM, reversible: no"}, "[8]": {"conditions": "Escherichia coli (strain K12), pH 5.5, Thermal, CD, Sodium acetate 20 mM, reversible: yes"}, "[9]": {"conditions": "Escherichia coli (strain K12), pH 8, 25 °C, GdnHCl, CD, Potassium phosphate 20 mM, KCl 50 mM, reversible: yes"}, "[10]": {"conditions": "Escherichia coli (strain K12), pH 8, 25 °C, GdnHCl, CD, Potassium phosphate 50 mM, KCl 50 mM, reversible: yes"}, "[11]": {"conditions": "Escherichia coli (strain K12), pH 8, 25 °C, Urea, CD, Potassium phosphate 20 mM, KCl 50 mM, reversible: yes"}}, "data": [{"protein": "B1", "values": [{"measurement": "Tm", "setting": "[1]", "result": 53.6, "unit": "°C"}, {"measurement": "heat capacity change of unfolding", "setting": "[1]", "result": 3.16, "unit": "kcal/mol/K"}, {"measurement": "unfolding enthalpy (calorimetric)", "setting": "[1]", "result": 152, "unit": "kcal/mol"}]}, {"protein": "B2", "values": [{"measurement": "denaturant midpoint (higher = more stable)", "setting": "Escherichia coli, pH 7.5, 22 °C, Urea, CD, Tris-HCl 50 mM, NaCl 150 mM, reversible: yes(96%)", "result": 4.7, "unit": "M"}]}, {"protein": "B3", "values": [{"measurement": "heat capacity change of unfolding", "setting": "[2]", "result": 2.13, "unit": "kcal/mol/K"}, {"measurement": "unfolding free energy", "setting": "[2]", "result": 7.77, "unit": "kcal/mol"}, {"measurement": "Tm", "setting": "[3]", "result": 53.2, "unit": "°C"}, {"measurement": "heat capacity change of unfolding", "setting": "[3]", "result": 2.13, "unit": "kcal/mol/K"}, {"measurement": "unfolding enthalpy (calorimetric)", "setting": "[3]", "result": 121, "unit": "kcal/mol"}, {"measurement": "unfolding enthalpy (van 't Hoff)", "setting": "[3]", "result": 131, "unit": "kcal/mol"}]}, {"protein": "B4", "values": [{"measurement": "Tm", "setting": "Escherichia phage lambda, pH 3, Thermal, CD, Potassium phosphate 10 mM, KCl 0.1 M, reversible: yes", "result": 40, "unit": "°C"}, {"measurement": "Tm", "setting": "Escherichia phage lambda, pH 7, Thermal, CD, Potassium phosphate 10 mM, KCl 0.1 M, reversible: yes", "result": 39.5, "unit": "°C"}]}, {"protein": "B5", "values": [{"measurement": "Tm", "setting": "[4]", "result": 61.7, "unit": "°C"}, {"measurement": "unfolding enthalpy (calorimetric)", "setting": "[4]", "result": 320, "unit": "kcal/mol"}, {"measurement": "unfolding enthalpy (van 't Hoff)", "setting": "[4]", "result": 151, "unit": "kcal/mol"}]}, {"protein": "B6", "values": [{"measurement": "unfolding free energy", "setting": "Escherichia coli (strain K12), pH 7.4, 22 °C, GdnHCl, CD, Sodium phosphate 20 mM, reversible: yes", "result": 6.5, "unit": "kcal/mol"}, {"measurement": "unfolding enthalpy (van 't Hoff)", "setting": "Escherichia coli (strain K12), pH 7.4, Thermal, CD, Sodium phosphate 20 mM, reversible: yes", "result": 135, "unit": "kcal/mol"}]}, {"protein": "B7", "values": [{"measurement": "unfolding free energy", "setting": "Escherichia coli (strain K12), pH 8, 15 °C, NaCl, Fluorescence, Tris-HCl 0.1 M, NaCl 2.0 M, reversible: yes", "result": 2.51, "unit": "kcal/mol"}]}, {"protein": "B8", "values": [{"measurement": "Tm", "setting": "Escherichia coli (strain K12), pH 3, Thermal, CD, Gly-HCl buffer 10 mM, NaCl 0.1 M, reversible: yes", "result": 49.8, "unit": "°C"}, {"measurement": "Tm", "setting": "[5]", "result": 50.1, "unit": "°C"}, {"measurement": "unfolding enthalpy (van 't Hoff)", "setting": "[5]", "result": 113, "unit": "kcal/mol"}, {"measurement": "Tm", "setting": "[6]", "result": 49.8, "unit": "°C"}, {"measurement": "unfolding enthalpy (van 't Hoff)", "setting": "[6]", "result": 98.1, "unit": "kcal/mol"}, {"measurement": "Tm", "setting": "[7]", "result": 66, "unit": "°C"}, {"measurement": "heat capacity change of unfolding", "setting": "[7]", "result": 2.7, "unit": "kcal/mol/K"}, {"measurement": "unfolding enthalpy (van 't Hoff)", "setting": "[7]", "result": 120, "unit": "kcal/mol"}, {"measurement": "Tm", "setting": "[8]", "result": 52, "unit": "°C"}, {"measurement": "unfolding enthalpy (van 't Hoff)", "setting": "[8]", "result": 89, "unit": "kcal/mol"}, {"measurement": "Tm", "setting": "Escherichia coli (strain K12), pH 5.5, Thermal, CD, sodium acetate 20 mM, NaCl 0.1 M, reversible: yes", "result": 52, "unit": "°C"}, {"measurement": "denaturant midpoint (higher = more stable)", "setting": "[9]", "result": 1.6, "unit": "M"}, {"measurement": "unfolding free energy", "setting": "[9]", "result": 7.2, "unit": "kcal/mol"}, {"measurement": "denaturant midpoint (higher = more stable)", "setting": "[10]", "result": 1.18, "unit": "M"}, {"measurement": "unfolding free energy", "setting": "[10]", "result": 3.95, "unit": "kcal/mol"}, {"measurement": "denaturant midpoint (higher = more stable)", "setting": "[11]", "result": 3.84, "unit": "M"}, {"measurement": "unfolding free energy", "setting": "[11]", "result": 7.4, "unit": "kcal/mol"}, {"measurement": "Tm", "setting": "Escherichia coli (strain K12), pH 8, Thermal, CD, Potassium phosphate 20 mM, KCl 50 mM, reversible: yes", "result": 55, "unit": "°C"}]}, {"protein": "B9", "values": [{"measurement": "Tm", "setting": "Escherichia coli (strain K12), pH 7.4, Thermal, CD, phosphate 5 mM, reversible: no", "result": 53, "unit": "°C"}]}]}
